# Publication PMC11779899 (Nature Communications, 2025)
# T1: WT-IrtABΔSID heterodimer in LMNG (Mycolicibacterium thermoresistibile …, point mutant)
# T1 chain 1: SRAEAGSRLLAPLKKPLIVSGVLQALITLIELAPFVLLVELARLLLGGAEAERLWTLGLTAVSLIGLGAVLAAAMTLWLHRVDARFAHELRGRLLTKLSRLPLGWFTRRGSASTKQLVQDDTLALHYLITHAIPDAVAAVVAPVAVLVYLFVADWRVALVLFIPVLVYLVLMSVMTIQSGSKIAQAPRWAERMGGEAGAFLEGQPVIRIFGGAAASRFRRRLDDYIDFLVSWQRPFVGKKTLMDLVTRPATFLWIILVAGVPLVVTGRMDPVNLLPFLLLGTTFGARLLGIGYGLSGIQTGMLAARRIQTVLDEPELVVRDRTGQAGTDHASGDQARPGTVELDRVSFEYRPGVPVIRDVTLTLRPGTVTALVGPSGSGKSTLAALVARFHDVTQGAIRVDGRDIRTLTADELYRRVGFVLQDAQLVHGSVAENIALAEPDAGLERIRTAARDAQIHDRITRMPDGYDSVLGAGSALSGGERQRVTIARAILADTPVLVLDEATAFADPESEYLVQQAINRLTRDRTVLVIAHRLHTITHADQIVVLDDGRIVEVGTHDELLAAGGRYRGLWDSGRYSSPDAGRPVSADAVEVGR
# T1 chain 2: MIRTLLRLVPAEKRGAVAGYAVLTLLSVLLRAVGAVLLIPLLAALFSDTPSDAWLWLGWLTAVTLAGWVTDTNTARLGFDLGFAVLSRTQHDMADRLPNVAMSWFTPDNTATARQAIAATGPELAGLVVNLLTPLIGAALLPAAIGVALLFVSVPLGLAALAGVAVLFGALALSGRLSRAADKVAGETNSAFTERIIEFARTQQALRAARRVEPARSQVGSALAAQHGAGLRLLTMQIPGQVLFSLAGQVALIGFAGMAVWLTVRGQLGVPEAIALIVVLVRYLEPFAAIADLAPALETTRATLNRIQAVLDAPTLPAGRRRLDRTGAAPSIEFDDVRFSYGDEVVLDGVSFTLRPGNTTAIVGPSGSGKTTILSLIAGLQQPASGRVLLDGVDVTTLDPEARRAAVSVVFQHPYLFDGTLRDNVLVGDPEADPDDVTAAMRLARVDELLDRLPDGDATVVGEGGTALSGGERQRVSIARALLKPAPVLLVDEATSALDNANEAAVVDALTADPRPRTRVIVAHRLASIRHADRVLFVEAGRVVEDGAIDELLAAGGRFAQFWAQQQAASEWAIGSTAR
# B1: IrtAB-specific sybody SybNL5 (VHH)
# VHH: QVQLVESGGGLVQAGGSLRLSCAASGFPVSSSTMTWYRQAPGKEREWVAAINSYGYYTVYADSVKGRFTISRDNAKNTVYLQMNSLKPEDTAVYYCNVKDTGQMRESYDYWGQGTQVTVSA
# Assays:
# [1] = molecular target: T1, WT-IrtABΔSID heterodimer in LMNG; assay: cryo-EM structure
# [2] = molecular target: Full-length WT-IrtAB heterodimer reconstituted in nanodiscs (Mycolicibacterium thermoresistibile …, UniProt G7CBF5;G7CBF6); assay: cryo-EM structure
binder,measurement,setting,value
B1,binding result,[1],binds
same,binding result,[2],binds
